{"source": "paper PMC11822739", "key": {"[1]": {"target": "HBV truncated core protein CP149 dimer (hepatitis B virus)", "test": "SEC + native MS"}, "[2]": {"target": "HBV truncated core protein CP149 dimer (hepatitis B virus)", "test": "SEC-MALS; SEC-UV-MALS-RI; 7.8 x 300 mm 1000 Å 3 μm column; 20 mM phosphate, 276 mM NaCl, 5.4 mM KCl, pH 7.4 (2x dPBS); flow rates 0.29 and 1.15 mL/min; 20 μL of 2 mg/mL Qβ, 14.4 μL of 0.67 mg/mL HBV VLPs with residual CP149 dimer; dn/dc 0.185 mL/mg"}, "[3]": {"target": "bovine thyroglobulin (bovine) (UniProt P01267)", "test": "SEC + native MS"}, "[4]": {"target": "bovine thyroglobulin (bovine) (UniProt P01267)", "test": "SEC + native MS", "remark": "listed apart in the source"}, "[5]": {"target": "bacteriophage Qβ virus-like particles (bacteriophage Qβ)", "test": "SEC-MALS; SEC-UV-MALS-RI; 7.8 x 300 mm 1000 Å 3 μm column; 20 mM phosphate, 276 mM NaCl, 5.4 mM KCl, pH 7.4 (2x dPBS); flow rates 0.29 and 1.15 mL/min; 20 μL of 2 mg/mL Qβ, 14.4 μL of 0.67 mg/mL HBV VLPs with residual CP149 dimer; dn/dc 0.185 mL/mg"}}, "note": "Values joined by “and” are separate entries in the source; they are usually repeats but may differ in a detail not shown here. Identical values can stand only once. Like-named read-outs stand apart in the source and are kept apart here.", "data": [{"substance": "HBV truncated core protein CP149 dimer (domain or fragment)", "values": [{"measurement": "stoichiometry N", "setting": "[1]", "value": "120 CP dimers and 90 CP dimers"}, {"measurement": "stoichiometry N", "setting": "[2]", "value": "120 CP dimers and 90 CP dimers"}]}, {"substance": "bovine thyroglobulin, P01267 20-2769", "values": [{"measurement": "stoichiometry N", "setting": "[3]", "value": 2}, {"measurement": "stoichiometry N", "setting": "[4]", "value": "4 and 3"}]}, {"substance": "bacteriophage Qβ virus-like particles (complex)", "values": [{"measurement": "stoichiometry N (x the molar mass of peak 3)", "setting": "[5]", "value": "4 and 2"}]}]}
